B1: Mothers against decapentaplegic homolog 4 (Homo sapiens), Q13485 (parent)
chain: MDNMSITNTPTSNDACLSIVHSLMCHRQGGESETFAKRAIESLVKKLKEKKDELDSLITAITTNGAHPSKCVTIQRTLDGRLQVAGRKGFPHVIYARLWRWPDLHKNELKHVKYCQYAFDLKCDSVCVNPYHYERVVSPGIDLSGLTLQSNAPSSMMVKDEYVHDFEGQPSLSTEGHSIQTIQHPPSNRASTETYSTPALLAPSESNATSTANFPNIPVASTSQPASILGGSHSEGLLQIASGPQPGQQQNGFTGQPATYHHNSTTTWTGSRTAPYTPNLPHHQNGHLQHHPPMPPHPGHYWPVHNELAFQPPISNHPAPEYWCSIAYFEMDVQVGETFKVPSSCPIVTVDGYVDPSGGDRFCLGQLSNVHRTEAIERARLHIGKGVQLECKGEGDVWVRCLSDHAVFVQSYYLDREAGRAPGDAVHKIYPSAYIKVFDLRQCHRQMQQQAATAQAAAAAQAAAVAGNIPGPGSVGGIAPAISLSAAAGIGVDDLRRLCILRMSFVKGWGPDYPRQSIKETPCWIEIHLHRALQLLDEVLHTMPIADPQPLD
partner: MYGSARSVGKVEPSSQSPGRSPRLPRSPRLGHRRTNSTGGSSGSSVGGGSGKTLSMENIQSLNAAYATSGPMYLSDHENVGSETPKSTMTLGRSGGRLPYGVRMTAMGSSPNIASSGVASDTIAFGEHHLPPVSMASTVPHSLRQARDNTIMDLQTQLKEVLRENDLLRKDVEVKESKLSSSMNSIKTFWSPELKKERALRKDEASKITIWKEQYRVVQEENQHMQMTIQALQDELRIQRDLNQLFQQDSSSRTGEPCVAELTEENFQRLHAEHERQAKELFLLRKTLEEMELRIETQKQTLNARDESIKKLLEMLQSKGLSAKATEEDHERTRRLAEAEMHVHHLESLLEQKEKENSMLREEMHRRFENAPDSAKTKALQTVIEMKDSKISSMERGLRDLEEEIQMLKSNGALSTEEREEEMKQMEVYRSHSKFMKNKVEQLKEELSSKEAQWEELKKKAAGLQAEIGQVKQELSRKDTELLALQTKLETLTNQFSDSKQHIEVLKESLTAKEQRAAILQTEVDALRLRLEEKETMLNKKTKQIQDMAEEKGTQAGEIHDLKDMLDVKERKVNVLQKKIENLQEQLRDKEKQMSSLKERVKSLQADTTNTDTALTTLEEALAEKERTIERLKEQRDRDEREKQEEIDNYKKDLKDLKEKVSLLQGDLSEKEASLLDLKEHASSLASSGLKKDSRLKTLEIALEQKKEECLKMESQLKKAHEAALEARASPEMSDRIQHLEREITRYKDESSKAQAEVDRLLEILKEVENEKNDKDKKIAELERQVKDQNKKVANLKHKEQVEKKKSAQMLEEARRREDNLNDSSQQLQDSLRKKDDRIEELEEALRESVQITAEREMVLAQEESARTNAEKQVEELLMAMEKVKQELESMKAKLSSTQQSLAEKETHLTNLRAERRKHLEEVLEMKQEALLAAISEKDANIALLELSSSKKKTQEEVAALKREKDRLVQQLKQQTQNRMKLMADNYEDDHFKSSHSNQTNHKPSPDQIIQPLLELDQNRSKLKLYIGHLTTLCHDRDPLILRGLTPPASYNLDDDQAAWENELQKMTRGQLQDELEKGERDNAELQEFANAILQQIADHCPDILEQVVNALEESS
B2: Mothers against decapentaplegic homolog 4 (Homo sapiens), Q13485 (parent)
chain: B1 chain
partner: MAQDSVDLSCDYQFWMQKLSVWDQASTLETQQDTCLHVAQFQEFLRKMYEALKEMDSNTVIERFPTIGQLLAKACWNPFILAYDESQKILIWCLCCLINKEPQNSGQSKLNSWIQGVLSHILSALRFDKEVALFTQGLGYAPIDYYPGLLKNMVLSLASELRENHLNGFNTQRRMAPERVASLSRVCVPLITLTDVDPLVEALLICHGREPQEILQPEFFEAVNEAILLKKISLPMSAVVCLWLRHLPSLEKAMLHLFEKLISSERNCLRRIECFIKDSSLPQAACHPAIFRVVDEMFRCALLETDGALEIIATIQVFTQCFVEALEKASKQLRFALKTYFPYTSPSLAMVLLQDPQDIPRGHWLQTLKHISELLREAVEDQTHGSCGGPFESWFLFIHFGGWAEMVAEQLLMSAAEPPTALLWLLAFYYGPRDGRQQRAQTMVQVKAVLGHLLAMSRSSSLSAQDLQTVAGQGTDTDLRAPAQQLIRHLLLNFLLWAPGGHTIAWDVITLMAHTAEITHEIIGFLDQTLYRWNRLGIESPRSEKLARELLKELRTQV
B3: Mothers against decapentaplegic homolog 4 (Homo sapiens), Q13485 (parent)
chain: B1 chain
partner: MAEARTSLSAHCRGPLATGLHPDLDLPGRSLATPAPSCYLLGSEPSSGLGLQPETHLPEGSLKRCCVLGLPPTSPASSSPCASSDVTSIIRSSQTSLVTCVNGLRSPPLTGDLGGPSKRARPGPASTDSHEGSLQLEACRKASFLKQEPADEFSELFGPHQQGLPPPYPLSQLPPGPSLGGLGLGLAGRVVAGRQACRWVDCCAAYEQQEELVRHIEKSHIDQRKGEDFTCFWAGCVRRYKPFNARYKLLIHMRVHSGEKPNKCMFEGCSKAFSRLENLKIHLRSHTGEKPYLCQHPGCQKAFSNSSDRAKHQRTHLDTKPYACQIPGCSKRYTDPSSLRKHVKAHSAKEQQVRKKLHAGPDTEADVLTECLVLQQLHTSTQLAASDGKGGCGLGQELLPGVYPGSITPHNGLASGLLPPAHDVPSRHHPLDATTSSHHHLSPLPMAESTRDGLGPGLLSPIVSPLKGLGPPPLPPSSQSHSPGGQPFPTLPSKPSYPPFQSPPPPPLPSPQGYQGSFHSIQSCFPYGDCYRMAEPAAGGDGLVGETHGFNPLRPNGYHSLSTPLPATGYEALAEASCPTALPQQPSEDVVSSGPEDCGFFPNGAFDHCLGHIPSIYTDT
B4: Mothers against decapentaplegic homolog 4 (Homo sapiens), Q13485 (parent)
chain: B1 chain
partner: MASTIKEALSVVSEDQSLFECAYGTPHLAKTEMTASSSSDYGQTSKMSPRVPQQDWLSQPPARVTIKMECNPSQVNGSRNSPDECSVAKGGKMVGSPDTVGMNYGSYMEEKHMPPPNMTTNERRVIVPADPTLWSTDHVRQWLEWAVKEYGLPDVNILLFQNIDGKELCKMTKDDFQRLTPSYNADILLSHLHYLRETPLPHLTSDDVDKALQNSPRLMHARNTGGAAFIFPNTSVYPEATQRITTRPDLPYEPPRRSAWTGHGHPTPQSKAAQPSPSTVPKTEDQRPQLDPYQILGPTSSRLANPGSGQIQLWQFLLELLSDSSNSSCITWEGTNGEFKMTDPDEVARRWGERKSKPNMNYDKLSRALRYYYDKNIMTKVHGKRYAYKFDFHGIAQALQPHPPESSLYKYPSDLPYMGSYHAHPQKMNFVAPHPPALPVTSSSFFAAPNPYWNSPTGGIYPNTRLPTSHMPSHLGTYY
B5: Mothers against decapentaplegic homolog 4 (Homo sapiens), Q13485 (parent)
chain: B1 chain
partner: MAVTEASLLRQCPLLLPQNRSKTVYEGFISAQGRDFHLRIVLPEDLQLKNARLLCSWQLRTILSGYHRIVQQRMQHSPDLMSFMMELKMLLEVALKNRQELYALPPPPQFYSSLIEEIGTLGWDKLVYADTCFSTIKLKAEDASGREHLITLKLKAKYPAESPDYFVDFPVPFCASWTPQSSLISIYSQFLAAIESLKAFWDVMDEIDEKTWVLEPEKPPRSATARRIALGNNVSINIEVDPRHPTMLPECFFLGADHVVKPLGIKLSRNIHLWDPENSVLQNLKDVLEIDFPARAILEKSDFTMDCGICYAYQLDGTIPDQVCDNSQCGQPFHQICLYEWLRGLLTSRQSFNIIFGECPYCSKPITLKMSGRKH
B6: Mothers against decapentaplegic homolog 4 (Homo sapiens), Q13485 (parent)
chain: B1 chain
partner: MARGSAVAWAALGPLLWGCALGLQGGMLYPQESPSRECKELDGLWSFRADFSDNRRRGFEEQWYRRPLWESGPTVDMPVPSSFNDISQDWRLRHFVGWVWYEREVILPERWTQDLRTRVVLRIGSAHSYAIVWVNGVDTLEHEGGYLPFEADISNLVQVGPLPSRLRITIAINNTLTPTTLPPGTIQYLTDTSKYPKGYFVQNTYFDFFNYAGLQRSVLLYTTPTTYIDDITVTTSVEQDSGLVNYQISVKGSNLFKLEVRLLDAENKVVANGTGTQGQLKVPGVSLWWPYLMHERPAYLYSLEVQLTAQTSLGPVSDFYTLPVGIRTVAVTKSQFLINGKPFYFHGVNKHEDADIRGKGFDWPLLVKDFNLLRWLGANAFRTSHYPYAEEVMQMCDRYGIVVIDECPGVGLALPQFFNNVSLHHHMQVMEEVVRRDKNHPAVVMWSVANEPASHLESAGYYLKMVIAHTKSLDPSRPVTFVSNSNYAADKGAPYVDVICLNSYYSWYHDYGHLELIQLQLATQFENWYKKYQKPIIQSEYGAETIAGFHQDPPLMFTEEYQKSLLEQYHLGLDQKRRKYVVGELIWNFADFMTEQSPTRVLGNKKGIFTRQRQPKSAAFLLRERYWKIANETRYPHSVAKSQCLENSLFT
B7: Mothers against decapentaplegic homolog 4 (Homo sapiens), Q13485 (parent)
chain: B1 chain
partner: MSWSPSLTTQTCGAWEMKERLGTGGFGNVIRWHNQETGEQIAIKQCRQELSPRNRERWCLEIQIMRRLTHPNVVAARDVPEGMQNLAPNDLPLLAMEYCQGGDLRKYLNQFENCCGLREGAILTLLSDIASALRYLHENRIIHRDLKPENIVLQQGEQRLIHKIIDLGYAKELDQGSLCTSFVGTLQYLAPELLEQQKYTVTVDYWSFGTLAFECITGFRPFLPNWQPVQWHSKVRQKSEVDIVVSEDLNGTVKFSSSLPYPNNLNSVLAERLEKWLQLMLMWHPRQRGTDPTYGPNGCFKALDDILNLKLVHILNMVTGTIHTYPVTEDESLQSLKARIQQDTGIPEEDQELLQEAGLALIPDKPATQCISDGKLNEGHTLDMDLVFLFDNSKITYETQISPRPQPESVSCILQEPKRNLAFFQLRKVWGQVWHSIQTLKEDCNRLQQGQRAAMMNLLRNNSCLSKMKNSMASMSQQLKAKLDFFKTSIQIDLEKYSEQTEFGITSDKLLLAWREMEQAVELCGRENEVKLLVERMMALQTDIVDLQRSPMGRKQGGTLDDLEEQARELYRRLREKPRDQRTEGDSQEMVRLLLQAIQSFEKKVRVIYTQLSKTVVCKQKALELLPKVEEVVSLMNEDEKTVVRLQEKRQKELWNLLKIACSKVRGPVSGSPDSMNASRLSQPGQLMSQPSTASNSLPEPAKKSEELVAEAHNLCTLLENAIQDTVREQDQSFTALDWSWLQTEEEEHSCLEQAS

Variants of: B1
Conditions: with rb6i2_human ERC1, Q8IUD2

effect of a mutation on the interaction | Variant
with no effect | R361H

Variants of: B2
Conditions: with fancc_human FANCC

effect of a mutation on the interaction | Variant
with no effect | D351H

Variants of: B2
Conditions: with fancc_human FANCC
Remark: another data set of the same source

effect of a mutation on the interaction | Variant
with no effect | R361C

Variants of: B2
Conditions: with fancc_human FANCC
Remark: another data set of the same source

effect of a mutation on the interaction | Variant
with no effect | R361H

Variants of: B2
Conditions: with fancc_human FANCC
Remark: another data set of the same source

effect of a mutation on the interaction | Variant
with no effect | G386D

Variants of: B3
Conditions: with glis1_human GLIS1, Q8NBF1

effect of a mutation on the interaction | Variant
with no effect | D351H

Variants of: B3
Conditions: with glis1_human GLIS1, Q8NBF1
Remark: another data set of the same source

effect of a mutation on the interaction | Variant
with no effect | R361H

Variants of: B3
Conditions: with glis1_human GLIS1, Q8NBF1
Remark: another data set of the same source

effect of a mutation on the interaction | Variant
with no effect | G386D

Variants of: B4
Conditions: with erg_human ERG

effect of a mutation on the interaction | Variant
with no effect | R361H

Variants of: B4
Conditions: with erg_human ERG
Remark: another data set of the same source

effect of a mutation on the interaction | Variant
with no effect | R361C

Variants of: B4
Conditions: with erg_human ERG
Remark: another data set of the same source

effect of a mutation on the interaction | Variant
with no effect | G386D

Variants of: B4
Conditions: with erg_human ERG
Remark: another data set of the same source

effect of a mutation on the interaction | Variant
with no effect | D351H

Variants of: B5
Conditions: with fancl_human FANCL

effect of a mutation on the interaction | Variant
with no effect | G386D

Variants of: B5
Conditions: with fancl_human FANCL
Remark: another data set of the same source

effect of a mutation on the interaction | Variant
increasing interaction strength | G386D

Variants of: B5
Conditions: with fancl_human FANCL
Remark: another data set of the same source

effect of a mutation on the interaction | Variant
with no effect | R361C

Variants of: B5
Conditions: with fancl_human FANCL
Remark: another data set of the same source

effect of a mutation on the interaction | Variant
with no effect | R361H

Variants of: B5
Conditions: with fancl_human FANCL
Remark: another data set of the same source

effect of a mutation on the interaction | Variant
with no effect | D351H

Variants of: B6
Conditions: with bglr_human GUSB

effect of a mutation on the interaction | Variant
with no effect | D351H

Variants of: B6
Conditions: with bglr_human GUSB
Remark: another data set of the same source

effect of a mutation on the interaction | Variant
with no effect | G386D

Variants of: B6
Conditions: with bglr_human GUSB
Remark: another data set of the same source

effect of a mutation on the interaction | Variant
with no effect | R361H

Variants of: B6
Conditions: with bglr_human GUSB
Remark: another data set of the same source

effect of a mutation on the interaction | Variant
with no effect | R361C

Variants of: B7
Conditions: with ikkb_human IKBKB

effect of a mutation on the interaction | Variant
with no effect | G386D

Variants of: B7
Conditions: with ikkb_human IKBKB
Remark: another data set of the same source

effect of a mutation on the interaction | Variant
with no effect | R361H

Variants of: B7
Conditions: with ikkb_human IKBKB
Remark: another data set of the same source

effect of a mutation on the interaction | Variant
with no effect | R361C
